From patent US20060286066A1 (published 2006) come the findings set out here.

Assay [1] deals with T1, TNF receptor 1 Fc fusion protein (R&D Systems) (human, UniProt P19438 30-211, limits assumed).
T1 construct: also called recombinant TNF receptor 1 (p55); not shown: Fc part of the bought fusion protein, captured by an anti-human Fc antibody
T1 sequence (looked up): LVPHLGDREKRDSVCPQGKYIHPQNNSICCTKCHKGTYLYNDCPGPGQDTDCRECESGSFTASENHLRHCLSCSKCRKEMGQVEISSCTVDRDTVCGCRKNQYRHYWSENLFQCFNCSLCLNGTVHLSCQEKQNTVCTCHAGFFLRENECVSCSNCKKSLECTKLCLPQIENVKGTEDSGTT
The assay can be described thus: TNF receptor binding assay: dAb titrated against TNF binding to TNF receptor 1.

Assay [2] concerns the target T2, Biotinylated human TNFRI (human, UniProt P19438 30-211, limits assumed, biotinylated (approx 1 biotin per molecule)).
T2 sequence (looked up): T1 sequence (looked up)
The assay can be described thus: SPR (Biacore), biotinylated human TNFRI on streptavidin chip, dAb injected. From the text: (§1) The effect of PEGylation on the binding affinity of TAR2-10-27 for its antigen was investigated using Biacore. All the PEGylated formats were generated using TAR2-10-27cys (see Example 2). The following methodology was used to determine the on and off rates of each PEGylated dAb format for the antigen. Biotinylated human TNFRI (approx 1 biotin per molecule) was coated onto a single flow cell of a Biacore streptavidin sensor chip at a density of approximately 400 RU. A concentration series of each dAb or PEGylated dAb (2.6 μM, 770 nM, 260 nM, 77 nM and 2.6 nM) was sequentially injected (45 μl injection at a flow rate of 30 μl/min) over both the TNFRI coated flow cell and an uncoated flow cell (streptavidin), (a subtractive curve was generated by subtracting the uncoated flow cell curve from the TNFRI flow cell curve). The off-rate was analysed for five minutes after the injection of each sample after which the surface was regenerated by injection of 10 mM glycine pH 3.
(§2) Data generated from the Biacore was fitted using the curve fitting software (Biaevaluation 3.2) and the association constant (kₐ) and dissociation constant (kd) determined (Table 8).

For assay [3], the target named is T2, Biotinylated human TNFRI. The assay can be described thus: SPR (Biacore), biotinylated human TNFRI on streptavidin chip, dAb injected; KD from mean kd/ka.
From the text: as §1, §2
In general terms: SPR reads the build-up and loss of mass on a sensor chip optically.

B1: TAR210-27 2 × 20K MAL PEG (other)
VH: ASTEVQLLESGGGLVQPGGSLRLSCAASGFTFEWYWMGWVRQAPGKGLEWVSAISGSGGSTYYADSVKGRFTISRDNSKNTLYLQMNSLRAEDAAVYYCAKVKLGGGPNFGYRGQGTLVTVSC
modifications: 2 × 20K (40K branched) MAL-PEG on the C-terminal Cys (Ser120cys)
notes: For the limits of the entry see m36; also called 40K PEGylated monomer (TAR2-10-27)
Regarding B1, the IC50 (as a rule, the concentration at which inhibition is half-maximal) in assay [1] is ~20 nM. In the assay with Biotinylated human TNFRI [2], the off-rate constant (koff) (usually the first-order rate constant of dissociation) came to 0.00517 s⁻¹ and the kon (commonly the rate constant with which the complex forms) is 74700 M⁻¹ s⁻¹. In addition, in the assay with Biotinylated human TNFRI [3], the equilibrium dissociation constant (Kd) (in general, the equilibrium constant for the complex coming apart) was 69.2 nM.
